From article PMC12199146

Biological target: T1, Endonuclease V (EcEndoV), wild-type (Escherichia coli) (UniProt P68739)
T1 sequence: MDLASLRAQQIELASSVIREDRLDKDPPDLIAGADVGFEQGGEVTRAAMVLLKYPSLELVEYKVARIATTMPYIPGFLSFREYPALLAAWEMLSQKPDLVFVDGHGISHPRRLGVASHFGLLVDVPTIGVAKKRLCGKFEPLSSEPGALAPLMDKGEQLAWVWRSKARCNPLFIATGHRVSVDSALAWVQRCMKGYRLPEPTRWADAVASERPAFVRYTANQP
Assay: EMSA
Settings: 5 mM Mg2+; pattern similar to A-RNA; one inosine; EMSA: 25 mM sodium phosphate pH 6.5, 50-300 mM NaCl (500 mM in Fig. S17E), 1 mM DTT, 5 mM MgCl2, 30 min on ice, 2 pmol RNA in 10 ul, 12% native gel in TBE at …

“1I-RNA (single-edited 20-mer dsRNA, one I:U pair)” was tested. Which binding signal (fold KD vs I-RNA) did it give?
The binding signal (fold KD vs I-RNA) was 2.
